Assay in all cases: purified protein, by the assay type
Substrate in data set [1]: CC(=O)NCCCCCCCCN
Also noted: steady-state kinetics of acetylpolyamine deacetylation, discontinuous LC-MS after dansyl chloride derivatization. The conditions noted are these: 50.0 °C. The procedure:
(§1) To study steady-state kinetics with non-fluorogenic peptide substrates and acetylpolyamines, a discontinuous LC–MS was employed based on the protocol of assaying nonfluorogenic acetyllysine peptide substrates for HDAC6 (ref. [17]). Assays were performed in triplicate. Briefly, 5 μl of enzyme (0.050–20 μM) in HEPES buffer (20 mM HEPES (pH 7.5), 100 mM NaCl, 5 mM KCl, 1 mM MgCl2) was added to 35 μl of substrate solution to initiate the reaction. After incubation for 15–60 min at room temperature, the reaction was quenched by addition of 50 μl of 20 mM dansyl chloride dissolved in acetonitrile followed by 10 μl of NaHCO3 (1.6 M, pH 10.0). The deacetylation products were derivatized with dansyl chloride at 50 °C for 2 hrs. The deacetylation products were detected by LC–MS using a Waters SQD equipped with an Acquity UPLC (Waters, Milford, MA, USA) and quantified by using the standard curves generated from the mass signals of the corresponding deacetylated polyamines and peptides. Inhibition of HDAC10 activity was measured by using 0.49 μM zHDAC10 with 192 μM N^8-acetylspermidine. Data were analysed by logistic regression for IC50 determination and the inhibition constant Ki was calculated based on the Cheng-Prusoff equation, Ki=IC50 / (1+[S]/KM)[45]. Assays were performed in triplicate at room temperature. We next tested the PDAC activity of hHDAC10 and zHDAC10 against several polyamine substrates using the LC–MS assay (Fig. 2, Supplementary Fig. 3 and Supplementary Table 1). […] For hHDAC10 and zHDAC10, kcat/KM=2,900±200 and 4,600±300 M^−1 s^−1, respectively; in comparison, N^1-acetylspermidine was a poor substrate with kcat/KM=24±5 and 7±2 M^−1 s^−1, respectively. Substrate specificity trends observed for zHDAC10 and hHDAC10 matched those of the previously reported mammalian N^8-acetylspermidine deacetylase activity. […] As a negative control, we examined the N^8-acetylspermidine deacetylase activity of human and zebrafish HDAC6 (ref. [17]). HDAC6 preferentially catalyses the deacetylation of the peptide substrate RGK(ac)-AMC with a catalytic efficiency >100-fold greater than that for the deacetylation of N^8-acetylspermidine. Therefore, HDAC6 is clearly an acetyllysine deacetylase and HDAC10 is an N^8-acetylspermidine deacetylase. It is notable that the molecular function of HDAC10 coincides with the cellular function of the cytosolic PDAC indicated in Fig. 1a.

Substrate in data set [2]: CC(=O)NCCCCCN
Further details: steady-state kinetics of acetylpolyamine deacetylation, discontinuous LC-MS after dansyl chloride derivatization. The conditions noted are these: 50.0 °C. The method, then:
as §1

Substrate in data set [3]: CC(=O)NCCCCN
Further details: steady-state kinetics of acetylpolyamine deacetylation, discontinuous LC-MS after dansyl chloride derivatization. The note with it: 50.0 °C. The method, then: as §1

Substrate in data set [4]: CC(=O)NCCCCNCCCN
Also noted: steady-state kinetics of acetylpolyamine deacetylation, discontinuous LC-MS after dansyl chloride derivatization. The conditions noted are these: 50.0 °C. The procedure:
as §1

Substrate in data set [5]: CC(=O)NCCCCNCCCNC(C)=O
Further details: steady-state kinetics of acetylpolyamine deacetylation, discontinuous LC-MS after dansyl chloride derivatization. The conditions noted are these: 50.0 °C. The method, then:
as §1

Substrate in data set [6]: CCCCNC(C)=O
Further details: steady-state kinetics of acetylpolyamine deacetylation, discontinuous LC-MS after dansyl chloride derivatization. The conditions noted are these: 50.0 °C. The procedure:
as §1

Substrate in data set [7]: CC(=O)NCCCC[C@H](NC(C)=O)C(N)=O
Also noted: discontinuous LC-MS deacetylation assay, dansylated product quantified, steady-state kinetics. The conditions noted are these: 50.0 °C. The procedure: To study steady-state kinetics with non-fluorogenic peptide substrates and acetylpolyamines, a discontinuous LC–MS was employed based on the protocol of assaying nonfluorogenic acetyllysine peptide substrates for HDAC6 (ref. [17]). Assays were performed in triplicate. Briefly, 5 μl of enzyme (0.050–20 μM) in HEPES buffer (20 mM HEPES (pH 7.5), 100 mM NaCl, 5 mM KCl, 1 mM MgCl2) was added to 35 μl of substrate solution to initiate the reaction. […] The deacetylation products were derivatized with dansyl chloride at 50 °C for 2 hrs. The deacetylation products were detected by LC–MS using a Waters SQD equipped with an Acquity UPLC (Waters, Milford, MA, USA) and quantified by using the standard curves generated from the mass signals of the corresponding deacetylated polyamines and peptides. Inhibition of HDAC10 activity was measured by using 0.49 μM zHDAC10 with 192 μM N^8-acetylspermidine. Data were analysed by logistic regression for IC50 determination and the inhibition constant Ki was calculated based on the Cheng-Prusoff equation, Ki=IC50 / (1+[S]/KM)[45]. Assays were performed in triplicate at room temperature.

Substrate in data set [8]: CC(=O)NCCCC[C@H](NC(=O)[C@H](C)NC(=O)CNC(C)=O)C(=O)Nc1ccc2c(C)cc(=O)oc2c1
Also noted: fluorogenic AMC-conjugated acetyllysine peptide deacetylation, steady-state kinetics. An excerpt: To determine steady-state kinetic parameters for the hydrolysis of a variety of acetylpolyamine and acetyllysine substrates, we prepared full-length recombinant HDAC10 from human (H. sapiens, hHDAC10) and zebrafish (D. rerio, zHDAC10). The CDs of these orthologues are highly similar based on 63%/79% sequence identity/similarity; only full-length constructs yielded soluble proteins. We first assayed the lysine deacetylase activity of these constructs against two commercially available aminomethylcoumarin (AMC)-conjugated fluorogenic acetyllysine peptides, GAK(ac)-AMC and RGK(ac)-AMC (molecular structures of all substrates are shown in Supplementary Fig. 2). […] These measurements were consistent with earlier studies reporting that HDAC10 activity was not measurable using fluorogenic peptide substrates. We also tested activity with 11 non-fluorogenic acetyllysine substrates using a […] chromatography–mass spectrometry (LC–MS)-based discontinuous assay[17] to avoid potential steric clashes that might occur with the bulky AMC group. These substrates included K(ac)NL and GAK(ac)NLQ, which mimic the peptide segment containing K73 in the proposed HDAC10 substrate MutS homologue 2 (MSH2)[22]. Again, we observed no or very low catalytic activity (Fig. 2 and Supplementary Table 1). In comparison with its closest relative, the cytosolic isozyme HDAC6 (ref. [17]), HDAC10 was clearly not an efficient lysine deacetylase.

B1: zHDAC10 (Danio rerio) (protein)
chain: ASGSALIFDEEMSRYKLLWTDPACEIEVPERLTVSYEALRTHGLAQRCKAVPVRQATEQEILLAHSEEYLEAVKQTPGMNVEELMAFSKKYNDVYFHQNIYHCAKLAAGATLQLVDSVMKREVRNGMALVRPPGHHSQRSAANGFCVFNNVAIAALYAKKNYNLNRILIVDWDVHHGQGIQYCFEEDPSVLYFSWHRYEHQSFWPNLPESDYSSVGKGKGSGFNINLPWNKVGMTNSDYLAAFFHVLLPVAYEFDPELVIVSAGFDSAIGDPEGEMCALPEIFAHLTHLLMPLAAGKMCVVLEGGYNLTSLGQSVCQTVHSLLGDPTPRISGLGTACDSALESIQNVRNVQSSYWSSFKHLAQSETNPKRPRLDATNGGPKESSEPASESNPKKTAQDIVWPEPLKRMPASVRTVVVPPPGVELTLPKNCQHSGDISESTAKEVQRIRDKHFHDLTDQNILRSLGNIISVLDRMMRSDEVCNGCVVVSDLSVSVQCALQHALTEPAERVLVVYVGDGELPVKTNDGKVFLVQICTKETEDKCVNRLSLCLREGESLTAGFMQALLGLILPVAYEFNPALVLGIVGETAAKTGLMTVWGHMTCLIQGLARGRTLTLLQGYDKDLLELTVSALSGASISPLGPLRALKPEDVEMMEKQRQRLQERWGLLRCTVSES
notes: full-length, residues 2–675
As for B1, the Km (as a rule, the concentration of substrate that gives half-maximal velocity) in data set [1] is 170 ± 40 µM; in data set [2], 90 ± 30 µM; in data set [3], 160 ± 50 µM; in data set [4], 130 ± 20 µM; in data set [5], 180 ± 40 µM; in data set [6] it was 900 ± 200 µM. Moreover, the figures for the Km in data set [7] and in data set [8] were 80 ± 10 µM and 22 ± 4 µM, respectively. Also, the catalytic constant (kcat) (in general, the number of substrate molecules converted per active site and unit of time at saturation) in data set [1] is 0.21 ± 0.02 s⁻¹; in data set [2], 0.37 ± 0.04 s⁻¹; in data set [3], 0.7 ± 0.1 s⁻¹; in data set [4], 0.58 ± 0.03 s⁻¹; in data set [5], 0.48 ± 0.08 s⁻¹; in data set [6], 0.06 ± 0.02 s⁻¹. Besides, the kcat was found to be 0.013 s⁻¹ in data set [7] and 0.00033 ± 2e-05 s⁻¹ in data set [8]. The kcat/Km (commonly the turnover number divided by the Michaelis constant) in data set [1] was determined as 1200 ± 200 M⁻¹ s⁻¹; in data set [2] it was 3900 ± 300 M⁻¹ s⁻¹; in data set [3], 4200 ± 900 M⁻¹ s⁻¹; in data set [4], 4600 ± 300 M⁻¹ s⁻¹; in data set [5], 2700 ± 300 M⁻¹ s⁻¹; in data set [6], 60 ± 20 M⁻¹ s⁻¹. In addition, the kcat/Km in data set [7] was 160 M⁻¹ s⁻¹; in data set [8] it was 15 ± 2 M⁻¹ s⁻¹.

Source of the values: PMC5454378, “Histone deacetylase 10 structure and molecular function as a polyamine deacetylase” (Nature Communications, 2017).
